In patent US20050239730A1, “Plasmodium falciparum erythrocyte binding protein baebl for use as a vaccine” (priority 2001, published 2005):

B1: BAEBL: Plasmodium falciparum erythrocyte binding protein of the DBL-EBP family (SEQ ID NO: 2); here metabolically labeled protein from Dd2/Nm culture supernatant (protein, listed as Plasmodium falciparum)
chain: MKGYFNIYFLIPLIFLYNVIRINESIIGRTLYNRQDESSDISRVNSPELNNNHKTNIYDSDYEDVNNKLINSFVENKSVKKKRSLSFINNKTKSYDIIPPSYSYRNDKFNSLSENEDNSGNTNSNNFANTSEISIGKDNKQYTFIQKRTHLFACGIKRKSIKWICRENSEKITVCVPDRKIQLCVANFLNSRLETMEKFKEIFLISVNTEAKLLYNKNEGKDPSIFCNELRNSFSDFRSSFIGDDMDFGGNTDRVKGYINTKFSDYYKEKNVEKLNNIKKEWWEKNKANLWNHMIVNHKGNISKECAIIPAEEPQINLWIKEWNENFLMEKKRLFLNIKDKCVENKKYEACFGGCRLPCSSYTSFMKKSKTQMEVLTNLYKKKNSGVDKNNFLNDLFKKNNKNDLDDFFKNEKEYDDLCDCRYTATIIKSFLNGPAKNDVDIASQINVNDLRGFGCNYKSNNEKSWNCTGTFTNKFPGTCEPPRRQTLCLGRTYLLHRGHEEDYKEHLLGASIYEAQLLKYKYKEKDENALCSIIQNSYADLADIIKGSDIIKDYYGKKMEENLNKVNKDKKRNEESLKIFREKWWDENKENVWKVMSAVLKNKETCKDYDKFQKIPQFLRWFKEWGDDFCEKRKEKIYSFESFKVECKKKDCDENTCKNKCSEYKKWIDLKKSEYEKQVDKYTKDKNKKMYDNIDEVKNKEANVYLKEKSKECKDVNFDDKIFNESPNEYEDMCKKCDEIKYLNEIKYPKTKHDIYDIDTFSDTFGDGTPISINANINEQQSGKDTSNTGNSETSDSPVSHEPESDAAINVEKLSGDESSSETRGILDINDPSVTNNVNEVHDASNTQGSVSNTSDITNGHSESSLNRTTNAQDIKIGRSGNEQSDNQENSSHSSDNSGSLTIGQVPSEDNTQNTYDSQNPHRDTPNALASLPSDDKINEIEGFDSSRDSENGRGDTTSNTHDVRRTNIVSERRVNSHDFIRNGMANNNAHHQYITQIENNGIIRGQEESAGNSVNYKDNPKRSNFSSENDHKKNIQEYNSRDTKRVREEIIKLSKQNKCNNEYSMEYCTYSDERNSSPGPCSREERKKLCCQISDYCLKYFNFYSIEYYNCIKSEIKSPEYKCFKSEGQSSIPYFAAGGILVVIVLLLSSASRMGKSNEEYDIGESNIEATFEENNYLNKLSRIFNQEVQETNISDYSEYNYNEKNMY
modifications: metabolic label
notes: here metabolically labeled protein from Dd2/Nm culture supernatant
B2: EBA-175: P. falciparum receptor that binds sialic acid and the peptide backbone of glycophorin A on erythrocytes (protein)
chain: ARNEYDIKENEKFLDVYKEKFNELDKKKYGNVQKTDKKIFTFIENKLDILNNSKFNKRWKSYGTPDNIDKNMSLINKHNNEEMFNNNYQSFLSTSSLIKQNKYVPINAVRVSRILSFLDSRINNGRNTSSNNEVLSNCREKRKGMKWDCKKKNDRSNYVCIPDRRIQLCIVNLSIIKTYTKETMKDHFIEASKKESQLLLKKNDNKYNSKFCNDLKNSFLDYGHLAMGNDMDFGGYSTKAENKIQEVFKGAHGEISEHKIKNFRKEWWNEFREKLWEAMLSEHKNNINNCKNIPQEELQITQWIKEWHGEFLLERDNRSKLPKSKCKNNTLYEACEKECIDPCMKYRDWIIRSKFEWHTLSKEYETQKVPKENAENYLIKISENKNDAKVSLLLNNCDAEYSKYCDCKHTTTLVKSVLNGNDNTIKEKREHIDLDDFSKFGCDKNSVDTNTKVWECKNPYILSTKDVCVPPRRQELCLGNIDRIYDKNLLMIKEHILAIAIYESRILKRKYKNKDDKEVCKIINKTFADIRDIIGGTDYWNDLSNRKLVGKINTNSKYVHRNKKNDKLFRDEWWKVIKKDVWNVISWVFKDKTVCKEDDIENIPQFFRWFSEWGDDYCQDKTKMIETLKVECKEKPCEDDNCKSKCNSYKEWISKKKEEYNKQAKQYQEYQKGNNYKMYSEFKSIKPEVYLKKYSEKCSNLNFEDEFKEELHSDYKNKCTMCPEVKDVPISIIRNNEQTSQEAVPEENTEIAHRTETPSISEGPKGNEQKERDDDSLSKISVSPENSRPETDAKDTSNLLKLKGDVDISMPKAVIGSSPNDNINVTEQGDNISGVNSKPLSDDVRPDKKELEDQNSDESEETVVNHISKSPSINNGDDSGSGSATVSESSSSNTGLSIDDDRNGDTFVRTQDTANTEDVIRKENADKDEDEKGADEERHSTSESLSSPEEKMLTDNEGGNSLNHEEVKEHTSNSDNVQQSGGIVNMNVEKELKDTLENPSSSLDEGKAHEELSEPNLSSDQDMSNTPGPLDNTSEETTERISNNEYKVNEREDERTLTKEYEDIVLKSHMNRESDDGELYDENSDLSTVNDESEDAEAKMKGNDTSEMSHNSSQHIESDQQKNDMKTVGDLGTTHVQNEISVPVTGEIDEKLRESKESKIHKAEEERLSHTDIHKINPEDRNSNTLHLKDIRNEENERHLTNQNINISQERDLQKHGFHTMNNLHGDGVSERSQINHSHHGNRQDRGGNSGNVLNMRSNNNNFNNIPSRYNLYDKKLDLDLYENRNDSTTKELIKKLAEINKCENEISVKYCDHMIHEEIPLKTCTKEKTRNLCCAVSDYCMSYFTYDSEEYYNCTKREFDDPSYTCFRKEAFSSMIFKFLITNKIYYYFYTYKTAKVTIKKINFSLIFFFFFSF
B3: VSTK: BAEBL region II variant (aa 143-606) expressed in COS cells; V185, S239, T261, K285 (protein)
chain: TFIQKRTHLFACGIKRKSIKWICRENSEKITVCVPDRKIQLCVANFLNSRLETMEKFKEIFLISVNTEAKLLYNKNEGKDPSIFCNELRNSFSDFRSSFIGDDMDFGGNTDRVKGYINTKFSDYYKEKNVEKLNNIKKEWWEKNKANLWNHMIVNHKGNISKECAIIPAEEPQINLWIKEWNENFLMEKKRLFLNIKDKCVENKKYEACFGGCRLPCSSYTSFMKKSKTQMEVLTNLYKKKNSGVDKNNFLNDLFKKNNKNDLDDFFKNEKEYDDLCDCRYTATIIKSFLNGPAKNDVDIASQINVNDLRGFGCNYKSNNEKSWNCTGTFTNKFPGTCEPPRRQTLCLGRTYLLHRGHEEDYKEHLLGASIYEAQLLKYKYKEKDENALCSIIQNSYADLADIIKGSDIIKDYYGKKMEENLNKVNKDKKRNEESLKIFREKWWDENKENVWKVMSAVLKNKET

Columns and labels:
[1] = target: normal human erythrocytes (untreated); assay: region II on COS cells, erythrocyte-binding assay
[2] = target: Gerbich human erythrocytes (exon 3 deletion of glycophorin C/D: shortened glycophorin C, absent glycophorin D); assay: region II on COS cells, erythrocyte-binding assay
[3] = tested on: human erythrocytes; assay: Modified erythrocyte binding assay: absorption/elution of metabolically labeled parasite proteins followed by immunoprecipitation; conditions: for Binding to En(a-) erythrocytes: which lack glycophorin A; for Binding to S-s-U- erythrocytes: S-s-U- erythrocytes that lacked glycophorin B; for Elution from Gerbich and normal erythrocytes: fresh Gerbich erythrocytes vs normal erythrocytes; for Absorption from culture supernatant by Gerbich cells compared with normal erythrocytes: fresh blood from a person with the Gerbich mutation, two separate experiments; for Binding to neuraminidase-treated human erythrocytes / Binding to trypsin-treated human erythrocytes: Dd2/Nm culture supernatant; for Binding to Gerbich erythrocytes: pellet-frozen Gerbich (-2, -3, -4) erythrocytes; for Binding to Yus erythrocytes: pellet-frozen Yus (-2, -3, -4) erythrocytes
Text: We have developed a new assay for measuring binding of BAEBL to erythrocytes. Previously, EBA-175 was identified in parasite proteins bound and eluted from human erythrocytes. Its identification was based on the fact that it was the most abundant and the highest molecular weight protein eluted from these erythrocytes. Lower molecular weight proteins may be proteolytic fragments of EBA-175 or products of different genes. To positively identify BAEBL, we immunoprecipitated BAEBL from proteins eluted from erythrocytes with anti-region II and anti-region VI.
We also modified the protocol in that we identified proteins removed from the supernatant by erythrocyte absorption. We determined the different quantities of erythrocytes required to remove BAEBL from the parasite supernatant. […] The protein was largely removed by absorbing twice with 50 μl of packed erythrocytes for some culture supernatants and by only one absorbtion with 50 μl for other supernatants. Therefore, on some samples, we absorbed with 25 μl, 50 μl once, and 50 μl twice for comparison between normal erythrocytes and mutant erythrocytes or enzyme-treated erythrocytes. The protein was also eluted from the first 50 μl of packed erythrocytes used for absorption.
Blood was collected in 10% citrate-phosphate-dextrose (vol/vol) and stored for up to 4 weeks at 4° C. At the time of study, the erythrocytes were washed three times in incomplete media (RPMI-1640; Life Technologies, Rockville, Md.) with 25 mM HEPES and 0.36 mM hypoxanthine (Sigma, St. Louis, Mo.). For neuraminidase treatment, 5.5 ml of a 5% (vol/vol) suspension of the washed human erythrocytes in incomplete media were incubated twice with 3 milliunits of neuraminidase (Vibrio cholerae; CalBiochem, La Jolla, Calif.) for 2 hr at 37° C. each time. For trypsin treatment, washed human erythrocytes were incubated with 1 mg/ml of tosyl-phenylalanine-chloromethyl-ketone-treated trypsin (Sigma) for 2 hr at 37° C. After trypsin treatment, the cells were washed once in incomplete medium and incubated with 2 mg/ml soybean trypsin inhibitor (Sigma) for 10 min at room temperature. The cells were washed twice before use in a study.
The glycophorin A and glycophorin B null erythrocytes [En(a-) and S-s-U-, respectively and the glycophorin D null/glycophorin C modified erythrocytes (Gerbich cells) were frozen within a few days of receipt and thawed by the Red Cross method (Mallory, D. ed. 1993 Immunohematology Methods and Procedures American Red Cross, National Reference Laboratory, Rockville, Md., pp. 125-1-125-2). Blood from a Gerbich donor was collected in 10% (vol/vol) anticoagulant citrate-phosphate-dextrose.
Other glycophorin C/D mutant cells (Leach, Gerbich, and Yus cells) had been stored in liquid nitrogen as frozen pellets (Judd, W. J. 1994 in: Methods in Immunohematology Montgomery Scientific Publications Durham, N.C., pp. 188-190) and thawed directly into PBS at 37° C.
Soluble, metabolically labeled parasite proteins were obtained from culture supernatant of schizont-infected erythrocytes that released merozoites in the absence of uninfected erythrocytes. The parasites were left to lyse and release proteins into the culture supernatant. The Dd2/Nm clone of P. falciparum was cultured as previously described (Kaneko, O. et al. 2000 Mol Biochem Parasitol 110: […]) with the following exceptions. Schizont-infected erythrocytes (5×10^7 per ml of culture medium) were used during the metabolic labeling. The culture supernatant was ultracentrifuged in a Beckman Optima TLX Ultracentrifuge (Beckman, Fullerton, Calif.) at 40,000 rpm (98,600×g) for 10 min at 4° C. before storage at −70° C.
Proteins in the supernatant and in the diluted eluate were immunoprecipitated as previously described (Kaneko, O. et al. 2000 Mol Biochem Parasitol 110: 135-146) with the following exceptions. […]

[4] = tested on: RBC (normal, trypsin- or neuraminidase-treated, Gerbich-negative); assay: Erythrocyte-binding assay with BAEBL region II variants expressed on the surface of COS cells; format: cell-based, human
[5] = glycophorin C/D null erythrocytes of the Leach phenotype, preliminary experiments

| Molecule | COS cells with five or more attached RBC, total per coverslip (COS cells per coverslip) [1] | percentage of binding to normal, untreated RBC [2] | Binding to En(a-) erythrocytes [3] | Binding to S-s-U- erythrocytes [3] | Elution from Gerbich and normal erythrocytes [3] | Absorption from culture supernatant by Gerbich cells compared with normal erythrocytes [3] | Detection in eluate of Leach erythrocytes [3, 5] | Detection in parasite supernatant absorbed with Leach erythrocytes [3, 5] | Binding to neuraminidase-treated human erythrocytes [3] | Elution from neuraminidase-treated normal erythrocytes ([3]; neuraminidase-treated normal erythrocytes) | Binding to Gerbich erythrocytes [3] | Binding to Yus erythrocytes [3] | Binding to trypsin-treated human erythrocytes [3] | Binding to Gerbich-negative RBC as percentage of binding to normal, untreated RBC ([4]; Gerbich-negative RBC (exon 3 deletion of glycophorin C/D)) | Binding to neuraminidase-treated normal RBC as percentage of binding to normal, untreated RBC ([4]; neuraminidase-treated normal RBC) | Binding to normal RBC, untreated: COS cells with five or more attached RBC, total per coverslip ([4]; normal untreated RBC, region II (aa 143-606) expressed in COS cells) | Binding to trypsin-treated normal RBC as percentage of binding to normal, untreated RBC ([4]; trypsin-treated normal RBC) |
| --- | --- | --- | --- | --- | --- | --- | --- | --- | --- | --- | --- | --- | --- | --- | --- | --- | --- |
| BAEBL region II variant VSTK, expressed on the surface of COS cells (ligand) | 65 | 0.9% | – | – | – | – | – | – | – | – | – | – | – | – | – | – | – |
| B1 | – | – | bound to these erythrocytes in a similar manner as to normal erythrocytes | bound | eluted from normal but not Gerbich erythrocytes | required twice as many Gerbich cells | never detected | not detected | eliminated the binding | did not elute | reduced binding | reduced binding | eliminated the binding | – | – | – | – |
| B2 | – | – | failed to bind | bound | eluted from both Gerbich and normal erythrocytes | bound equally well to Gerbich and normal erythrocytes | – | – | failure of neuraminidase-and trypsin-treated erythrocytes to bind | – | bound normally | bound normally | failure of neuraminidase-and trypsin-treated erythrocytes to bind | – | – | – | – |
| B3 | – | – | – | – | – | – | – | – | – | – | – | – | – | 0.9% | 0% | 65 | 0% |
